These results are taken from ChEMBL document CHEMBL2074524, “Delineating the contribution of secretory transporters in the efflux of etoposide using Madin-Darby canine kidney (MDCK) cells overexpressing P-glycoprotein (Pgp), multidrug resistance-associated protein (MRP1), and canalicular multispecific organic anion transporter (cMOAT)” (Drug Metab Dispos, 2002).

For orientation: Km means the concentration of substrate that gives half-maximal velocity.

In series [1] the target is Multidrug resistance-associated protein 1 (Homo sapiens, UniProt P33527). In words: TP_TRANSPORTER: transepithelial transport (basal to apical) in MRP1-expressing MDCKII cells. As to conditions: dog, mdck-ii. The class given is functional, cell-based.
The test system of series [2] is COc1cc([C@@H]2c3cc4c(cc3[C@@H](O[C@@H]3O[C@@H]5CO[C@@H](C)O[C@H]5[C@H](O)[C@H]3O)[C@H]3COC(=O)[C@H]23)OCO4)cc(OC)c1O. As to the kind of experiment: TP_TRANSPORTER: transepithelial transport (basal to apical) in MDR1-expressing MDCKII cells. The class given is functional, cell-based, MDCK-II.
Substrate in series [3]: COc1cc([C@@H]2c3cc4c(cc3[C@@H](O[C@@H]3O[C@@H]5CO[C@@H](C)O[C@H]5[C@H](O)[C@H]3O)[C@H]3COC(=O)[C@H]23)OCO4)cc(OC)c1O
As to the kind of experiment: TP_TRANSPORTER: transepithelial transport (basal to apical) in MRP2-expressing MDCKII cells. The class given is functional, cell-based, MDCK-II.

Multidrug resistance-associated protein 1, sequence (P33527 whole entry): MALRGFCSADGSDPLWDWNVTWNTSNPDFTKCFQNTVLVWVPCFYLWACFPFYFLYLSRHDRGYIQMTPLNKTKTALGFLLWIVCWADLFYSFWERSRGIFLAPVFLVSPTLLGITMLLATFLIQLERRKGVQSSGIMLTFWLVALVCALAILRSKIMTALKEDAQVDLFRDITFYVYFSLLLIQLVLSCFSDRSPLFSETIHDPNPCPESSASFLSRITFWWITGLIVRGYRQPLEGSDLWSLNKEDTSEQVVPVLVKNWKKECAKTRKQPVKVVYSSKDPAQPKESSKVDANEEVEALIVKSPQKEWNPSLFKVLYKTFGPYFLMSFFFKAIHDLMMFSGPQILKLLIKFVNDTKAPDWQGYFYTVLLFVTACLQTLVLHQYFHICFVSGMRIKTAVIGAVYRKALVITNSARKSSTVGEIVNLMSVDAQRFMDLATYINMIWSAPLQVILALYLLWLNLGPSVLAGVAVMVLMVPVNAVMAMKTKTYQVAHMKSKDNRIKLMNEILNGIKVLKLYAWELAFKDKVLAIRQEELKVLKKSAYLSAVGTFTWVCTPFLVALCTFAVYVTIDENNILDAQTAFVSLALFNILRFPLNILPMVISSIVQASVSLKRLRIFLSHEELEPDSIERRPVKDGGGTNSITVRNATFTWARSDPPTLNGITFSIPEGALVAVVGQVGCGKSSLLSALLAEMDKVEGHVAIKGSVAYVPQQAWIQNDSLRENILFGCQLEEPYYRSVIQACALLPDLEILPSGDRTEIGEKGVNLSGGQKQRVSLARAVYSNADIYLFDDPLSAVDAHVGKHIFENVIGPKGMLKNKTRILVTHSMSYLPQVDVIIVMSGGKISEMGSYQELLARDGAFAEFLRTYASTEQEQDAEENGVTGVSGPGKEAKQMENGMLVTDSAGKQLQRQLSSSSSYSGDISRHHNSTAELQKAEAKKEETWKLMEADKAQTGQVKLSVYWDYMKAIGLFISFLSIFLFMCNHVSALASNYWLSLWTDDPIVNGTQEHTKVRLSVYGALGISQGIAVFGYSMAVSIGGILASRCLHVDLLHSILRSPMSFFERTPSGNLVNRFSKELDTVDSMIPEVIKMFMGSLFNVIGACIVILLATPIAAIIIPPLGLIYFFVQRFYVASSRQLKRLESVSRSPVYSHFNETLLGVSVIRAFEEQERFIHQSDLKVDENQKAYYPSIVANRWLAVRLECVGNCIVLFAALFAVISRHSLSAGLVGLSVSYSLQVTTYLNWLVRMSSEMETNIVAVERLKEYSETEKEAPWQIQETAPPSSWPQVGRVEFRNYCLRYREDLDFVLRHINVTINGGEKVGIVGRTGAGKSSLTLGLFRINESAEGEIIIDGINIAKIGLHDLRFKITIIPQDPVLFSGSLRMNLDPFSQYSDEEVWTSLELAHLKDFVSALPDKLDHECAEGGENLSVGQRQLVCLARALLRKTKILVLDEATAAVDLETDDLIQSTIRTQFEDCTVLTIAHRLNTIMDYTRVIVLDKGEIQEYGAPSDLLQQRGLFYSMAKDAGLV

As to `COc1cc([C@@H]2c3cc4c(cc3[C@@H](O[C@@H]3O[C@@H]5CO[C@@H](C)O[C@H]5[C@H](O)[C@H]3O)[C@H]3COC(=O)[C@H]23)OCO4)cc(OC)c1O` [ETOPOSIDE], the Activity entry in series [1] was “is not a substrate [-]”.

On to “ATP-dependent translocase ABCB1 (Homo sapiens)”, for which, in series [2], the Km turned out to be 255 µM.

B1: ATP-binding cassette sub-family C member 2 (Homo sapiens) (protein)
chain: MLEKFCNSTFWNSSFLDSPEADLPLCFEQTVLVWIPLGYLWLLAPWQLLHVYKSRTKRSSTTKLYLAKQVFVGFLLILAAIELALVLTEDSGQATVPAVRYTNPSLYLGTWLLVLLIQYSRQWCVQKNSWFLSLFWILSILCGTFQFQTLIRTLLQGDNSNLAYSCLFFISYGFQILILIFSAFSENNESSNNPSSIASFLSSITYSWYDSIILKGYKRPLTLEDVWEVDEEMKTKTLVSKFETHMKRELQKARRALQRRQEKSSQQNSGARLPGLNKNQSQSQDALVLEDVEKKKKKSGTKKDVPKSWLMKALFKTFYMVLLKSFLLKLVNDIFTFVSPQLLKLLISFASDRDTYLWIGYLCAILLFTAALIQSFCLQCYFQLCFKLGVKVRTAIMASVYKKALTLSNLARKEYTVGETVNLMSVDAQKLMDVTNFMHMLWSSVLQIVLSIFFLWRELGPSVLAGVGVMVLVIPINAILSTKSKTIQVKNMKNKDKRLKIMNEILSGIKILKYFAWEPSFRDQVQNLRKKELKNLLAFSQLQCVVIFVFQLTPVLVSVVTFSVYVLVDSNNILDAQKAFTSITLFNILRFPLSMLPMMISSMLQASVSTERLEKYLGGDDLDTSAIRHDCNFDKAMQFSEASFTWEHDSEATVRDVNLDIMAGQLVAVIGPVGSGKSSLISAMLGEMENVHGHITIKGTTAYVPQQSWIQNGTIKDNILFGTEFNEKRYQQVLEACALLPDLEMLPGGDLAEIGEKGINLSGGQKQRISLARATYQNLDIYLLDDPLSAVDAHVGKHIFNKVLGPNGLLKGKTRLLVTHSMHFLPQVDEIVVLGNGTIVEKGSYSALLAKKGEFAKNLKTFLRHTGPEEEATVHDGSEEEDDDYGLISSVEEIPEDAASITMRRENSFRRTLSRSSRSNGRHLKSLRNSLKTRNVNSLKEDEELVKGQKLIKKEFIETGKVKFSIYLEYLQAIGLFSIFFIILAFVMNSVAFIGSNLWLSAWTSDSKIFNSTDYPASQRDMRVGVYGALGLAQGIFVFIAHFWSAFGFVHASNILHKQLLNNILRAPMRFFDTTPTGRIVNRFAGDISTVDDTLPQSLRSWITCFLGIISTLVMICMATPVFTIIVIPLGIIYVSVQMFYVSTSRQLRRLDSVTRSPIYSHFSETVSGLPVIRAFEHQQRFLKHNEVRIDTNQKCVFSWITSNRWLAIRLELVGNLTVFFSALMMVIYRDTLSGDTVGFVLSNALNITQTLNWLVRMTSEIETNIVAVERITEYTKVENEAPWVTDKRPPPDWPSKGKIQFNNYQVRYRPELDLVLRGITCDIGSMEKIGVVGRTGAGKSSLTNCLFRILEAAGGQIIIDGVDIASIGLHDLREKLTIIPQDPILFSGSLRMNLDPFNNYSDEEIWKALELAHLKSFVASLQLGLSHEVTEAGGNLSIGQRQLLCLGRALLRKSKILVLDEATAAVDLETDNLIQTTIQNEFAHCTVITIAHRLHTIMDSDKVMVLDNGKIIECGSPEELLQIPGPFYFMAKEAGIENVNSTKF
Regarding B1, the Km in series [3] was 617 µM.
